In US20180016327A1 (Chugai, published 2018):
Substitutions are numbered along the chain they refer to.

B1: CFP0015 15L 53T (antibody, V domains shown)
VH: QVQLLESGGGLVQPGGSLRLSCAASGFTFSSYAMSWVRQAPGKGLEWVSAISGSGGSTYYADSVKGRFTISRDNSKNTLYLQMNSLRAEDTAVYYCARGDQIWYDQWYYFDMWGQGTLVTVSS
VL: DIQMTQSPSSLSASVGDRVTITCRASQSIEDDLAWYQQKPGKAPKLLIYEASTLQSGVPSRFSGSGSGTDFTLTISSLQPEDFATYYCQQYDSSPLTFGQGTKVEIK
B2: CFP0015 15L 92E (antibody, V domains shown)
VH: B1 VH
VL: B1 VL with T53N, D92E
B3: CFP0015 15L 93G (antibody, V domains shown)
VH: B1 VH
VL: B1 VL with T53N, S93G
B4: CFP0015 15L 91H (antibody, V domains shown)
VH: B1 VH
VL: B1 VL with T53N, Y91H
B5: CFP0015 15L 91S (antibody, V domains shown)
VH: B1 VH
VL: B1 VL with T53N, Y91S
B6: CFP0015 15L 92S (antibody, V domains shown)
VH: B1 VH
VL: B1 VL with T53N, D92S
B7: CFP0015 15L 93R (antibody, V domains shown)
VH: B1 VH
VL: B1 VL with T53N, S93R
B8: CFP0015 15L 91E (antibody, V domains shown)
VH: B1 VH
VL: B1 VL with T53N, Y91E
B9: CFP0015 15L 91D (antibody, V domains shown)
VH: B1 VH
VL: B1 VL with T53N, Y91D
B10: CFP0015 15L 93D (antibody, V domains shown)
VH: B1 VH
VL: B1 VL with T53N, S93D
B11: CFP0015 15L 92Q (antibody, V domains shown)
VH: B1 VH
VL: B1 VL with T53N, D92Q
B12: CFP0015 15L 92P (antibody, V domains shown)
VH: B1 VH
VL: B1 VL with T53N, D92P
B13: CFP0015 15L 91Q (antibody, V domains shown)
VH: B1 VH
VL: B1 VL with T53N, Y91Q
B14: CFP0015 15L 91R (antibody, V domains shown)
VH: B1 VH
VL: B1 VL with T53N, Y91R
B15: CFP0015 15L 92T (antibody, V domains shown)
VH: B1 VH
VL: B1 VL with T53N, D92T
B16: CFP0015 15L 93N (antibody, V domains shown)
VH: B1 VH
VL: B1 VL with T53N, S93N
B17: CFP0015 15L 91T (antibody, V domains shown)
VH: B1 VH
VL: B1 VL with T53N, Y91T

Target: T1, human C5 (human, UniProt P01031 19-673; P01031 678-1676, Beta and alpha chains are disulfide-linked and the protein is glycosylated.)
T1 construct: Either in-house recombinant C5 or plasma derived C5 (CALBIOCHEM) was used; also called recombinant human C5; plasma derived human C5
Test: Biacore, captured antibody, pH 7.4, 37 C;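 note: biacore binding response of anti-C5 antibody light chain variants captured on chip with human C5 injected, ACES running buffer containing 1.2 mM CaCl₂, parent light chain antibody set to 100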

Binder | % binding (parent = 100)
B1 | 75.8%
B2 | 99.8%
B3 | 78.6%
B4 | 81.5%
B5 | 27.3%
B6 | 51.3%
B7 | 96%
B8 | 30.1%
B9 | 20.4%
B10 | 45.1%
B11 | 59.7%
B12 | 21.7%
B13 | 96.4%
B14 | 2.4%
B15 | 74.1%
B16 | 80.4%
B17 | 50.7%
